Assays:
[1] = tested on: HER2 negative hormone receptor-positive metastatic breast cancer patients; experiment: AIPAC Phase IIb study: paclitaxel+IMP321 vs paclitaxel+placebo, overall survival; format: in vivo, human
Method: A multicentre, placebo-controlled, double-blind, 1:1 randomised Phase IIb study in female HER2 negative hormone receptor-positive metastatic breast cancer patients was conducted. The study comprised two stages: • stage 1 which was an open-label, safety run-in stage consisting of cohorts 1 and 2 to confirm the recommended Phase II dose (RPTD) of IMP321 in combination with paclitaxel; and • stage 2 which was a placebo-controlled, double-blind randomisation stage, paclitaxel+IMP321 at the RPTD compared to paclitaxel+placebo.
The chemo-immunotherapy phase consisted of 6 cycles of 4 weeks. Patients received weekly paclitaxel at Days 1, 8 and 15 with adjunctive treatment of study agent (IMP321) on Days 2 and 16 of each 4-week cycle. After completion of the 6-cycle chemo-immunotherapy phase, responding or stable patients received study agent (IMP321) every 4 weeks during the maintenance phase for an additional period of up to 12 injections.
The chemo-immunotherapy phase consisted of 6 cycles of 4 weeks. Patients received weekly paclitaxel at Days 1, 8 and 15 with adjunctive treatment of study agent (placebo) on Days 2 and 16 of each 4-week cycle.
After completion of the 6-cycle chemo-immunotherapy phase, responding or stable patients received study agent (placebo) every 4 weeks during the maintenance phase for an additional period of up to 12 injections.
In addition, multivariate analysis was done using backward selection (p>0.15) from the univariate cox model.

[2] = tested on: Blood cell subsets (CD4, CD8, PBMCs, monocytes) and Th1 biomarker (CXCL-10); experiment: AIPAC immuno-monitoring of blood cell subsets, Th1 biomarker and absolute lymphocyte count; format: in vivo, human
Method: Immuno-monitoring was also conducted. Blood cell subsets (CD4, CD8, PBMCs, monocytes) and Th1 biomarker (CXCL-10) were measured centrally. Comparison was done using 2-sided Wilcoxon test.
(§1) On the other hand, pre-study levels of CD8+ T cells were not correlated with OS in either treatment arm. Efti increases secondary target cells (CD8+ T cells) in the peripheral blood, leading to improved OS.
Increase of ALC is linked to improved survival for patients treated with efti arm, but not for patients in the placebo arm (FIG. 9). […] As this increase is observed early, it could be used in the future as a potential early on study biomarker for treatment continuation.

[3] = Pharmacokinetics of s.c. IMP321 in metastatic renal cell cancer patients; format: in vivo, human; conditions: for at least 24 hours after s.c. injection; doses of more than 6 mg
[4] = Clinical pharmacokinetics of s.c. efti in cancer patients; format: in vivo, human; conditions: for Cavg24h: cancer patients
Method: as §1
Efti doses of 6 and 30 mg given clinically lead to plasma Cmax of ≥1 ng/ml in most patients, this concentration reflecting the minimum concentration for desired efti PD effects. However, systemic efti levels of >1 ng/ml and lasting for ≥24 h have been observed in about 90% of patients receiving efti 30 mg, compared to only 20% at 6 mg.

[5] = tested on: primary and secondary immune cells; experiment: PD effects in vitro and ex vivo: activation of immune cells, induction of cytokines; format: cell-based
[6] = tested on: CD4+ and CD8+ T cells numbers and activation status, IFN-γ and CXCL10; experiment: PD markers of T cell immune response in patients dosed with efti every 2 weeks; format: in vivo, human
[7] = Nonclinical toxicity study; format: in vivo
[8] = human, in vivo
[9] = Clinical safety and tolerability of IMP321 (efti)
[10] = Overall population, paclitaxel+IMP321 30 mg vs paclitaxel+placebo, univariate analysis, p 0.197
[11] = Sub-group <5 years since diagnosis, multivariate analysis table, p 0.025
[12] = Sub-group <65 years, univariate analysis, p 0.017
[13] = Sub-group Luminal B, univariate analysis, p 0.049
[14] = Sub-group high (>3.65) NLR at baseline, multivariate analysis table, p 0.012
[15] = Sub-group low baseline monocytes (<0.25/nL), univariate analysis, p 0.008
[16] = Sub-group low baseline monocytes, multivariate analysis table, p 0.008
[17] = Sub-group no prior taxane therapy, multivariate analysis table, p 0.076
[18] = Sub-group no prior taxane therapy, univariate analysis, p 0.076
[19] = 8 treatment emergent adverse events in 3 of 5 patients with Cmax >10 ng/ml

B1: IMP321: recombinant soluble human LAG-3Ig fusion protein, 160-kDa dimer: extracellular domain of hLAG-3 fused to human IgG1 Fc; APC activator (protein)
chain: LQPGAEVPVVWAQEGAPAQLPCSPTIPLQDLSLLRRAGVTWQHQPDSGPPAAAPGHPLAPGPHPAAPSSWGPRPRRYTVLSVGPGGLRSGRLPLQPRVQLDERGRQRGDFSLWLRPARRADAGEYRAAVHLRDRALSCRLRLRLGQASMTASPPGSLRASDWVILNCSFSRPDRPASVHWFRNRGQGRVPVRESPHHHLAESFLFLPQVSPMDSGPWGCILTYRDGFNVSIMYNLTVLGLEPPTPLTVYAGAGSRVGLPCRLPAGVGTRSFLTAKWTPPGGGPDLLVTGDNGDFTLRLEDVSQAQAGTYTCHIHLQEQQLNATVTLAIITVTPKSFGSPGSLGKLLCEVTPVSGQERFVWSSLDTPSQRSFSGPWLEAQEAQLLSQPWQCQLYQGERLLGAAVYFTELSSPG
modifications: left off: small tags and cut ends; a dimerising Fc or GST
Absolute gain in median OS [1, 10]: +2.9 months
Hazard Ratio [95% CI] (OS) [1, 10]: 0.88
Absolute gain in median OS [1, 11]: +4.8 months
Hazard Ratio [95% CI] (OS) [1, 11]: 0.62
Absolute gain in median OS [1, 12]: +7.5 months
Hazard Ratio [95% CI] (OS) [1, 12]: 0.66
Absolute gain in median OS [1, 13]: +4.2 months
Hazard Ratio [95% CI] (OS) [1, 13]: 0.67
Absolute gain in median OS [1, 14]: +6.9 months
Hazard Ratio [95% CI] (OS) [1, 14]: 0.61
Absolute gain in median OS [1, 15]: +19.6 months
Hazard Ratio [95% CI] (OS) [1, 15]: 0.44
Absolute gain in median OS [1, 16]: +19.6 months
Hazard Ratio [95% CI] (OS) [1, 16]: 0.44
Absolute gain in median OS [1, 17]: +4.8 months
Hazard Ratio [95% CI] (OS) [1, 17]: 0.74
Absolute gain in median OS [1, 18]: +4.8 months
Hazard Ratio [95% CI] (OS) [1, 18]: 0.74
improvement in median overall survival (OS) ([1]; young patients (<65 years), low baseline monocytes (<0.25/nL), or Luminal B, exploratory univariate analysis): significant and clinically meaningful improvement
On treatment fold-change of PBMCs ([2]; IMP321 group vs placebo 1.41, p=0.041): 2.00 fold
On treatment fold-change of T cells ([2]; IMP321 group vs placebo 1.48, p=0.086): 2.28 fold
On treatment fold-change of CXCL10 ([2]; IMP321 group vs placebo 1.56, p=0.06): 2.78 fold
On treatment fold-change of monocytes ([2]; IMP321 group vs placebo 2.29, p=0.025): 5.81 fold
absolute lymphocyte count increase ([2]; efti arm, early (after 4 weeks) and sustainable): ≥ 0.2 nL⁻¹
circulating CD8+ T cells ([2]; efti arm, fresh whole blood by FACS (n=75), samples 2 weeks after previous efti dose, not in placebo arm): sustainable, statistically significant increase
Post baseline CD8 T cells count (median) ([2]; patients with improved OS, IMP321 group vs placebo 223, p=0.005): 377 µL⁻¹
Post baseline CD4 T cells count (median) ([2]; patients with improved OS, IMP321 group vs placebo 736, p=0.038): 896 µL⁻¹
blood concentration of IMP321 [3]: > 1 ng/mL
patients with systemic efti levels of >1 ng/ml lasting for ≥24 h ([4]; 6 mg): 20%
Cavg24h ([4]; 6 mg): 0.8 ng/mL
patients with systemic efti levels of >1 ng/ml lasting for ≥24 h ([4]; 30 mg): about 90%
Cavg24h ([4]; 30 mg s.c.): 3.3 ng/mL
plasma Cmax ([4]; doses of 6 and 30 mg, in most patients): ≥ 1 ng/mL
time until efti disappears from the bloodstream after injection ([4]; s.c. injection): 3 to 4 days
efti concentration at which desired PD effects start [5]: 1 to 10 ng/mL
proportion of patients with upregulation of at least one PD marker (1.4-fold increase compared to baseline) ([6]; 1 mg): about 50%
proportion of patients with upregulation of at least one PD marker (1.4-fold increase compared to baseline) ([6]; 30 mg): about 90%
NOAEL dose [7]: 15 mg/kg
safety and tolerability of dose [8]: safe and tolerable
safety of s.c. doses ([8]; sc): safe
grade ≥3 adverse events related to efti ([9]; 5 patients with Cmax of >10 ng/ml at dose 1): no grade ≥3 adverse events related to efti
adverse reactions mild in severity [9, 19]: 62.5%
adverse reactions moderate in severity [9, 19]: 37.5%
dose limiting toxicity ([9]; observed to date): No dose limiting toxicity
